From patent US20090291081A1 (AbbVie / Abbott, published 2009)
Changes are numbered by the printed parent chain. One block for each binder: values may come before it.

Tests used:
human IL-1α [1] = target: T1, human IL-1α (human, UniProt P01583 113-271); assay: cell-based or functional assay
T1 sequence (looked up): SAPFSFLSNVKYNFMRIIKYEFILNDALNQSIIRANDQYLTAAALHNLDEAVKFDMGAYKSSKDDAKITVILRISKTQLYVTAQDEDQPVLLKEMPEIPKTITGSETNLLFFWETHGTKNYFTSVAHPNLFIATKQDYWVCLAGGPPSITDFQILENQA

human IL-1α [2] = target: T1, human IL-1α; assay: Table 62 IC50; RBA presumed

- ND50 (human IL-1α [1]): 1000 nM
B1: ABT1-3 (other)
VL: DIQMTQSPSSLSASVGDRVTITCRASQSIWTELKWYQQKPGKAPKLLIYGASLLQSGVPSRFSGSGSGTDFTLTISSLQPEDFATYYCQQFAYFPFTFGQGTKVEIKR

- ND50 (human IL-1α [1]): > 20000 nM
B2: ABT1-10 (other)
VL: B1 VL with W30V, T31P, E32N, K34R, L53T, F91G, A92Y, Y93V, F94Y, F96G

- ND50 (human IL-1α [1]): 4000 nM
B3: ABT1-9 (other)
VL: B1 VL with W30G, T31S, E32S, K34L, G50L, L53R, A92R, Y93S, F94T, F96N

- IC50 (human IL-1α [2]): > 500 nM
B4: ABT1-123 (other)
VL: B1 VL with F94H, F96H
notes: VK dAb

- IC50 (human IL-1α [2]): 80 nM
B5: ABT1-139 (other)
VH: EVQLLESGGGLVQPGGSLRLSCAASGFTFSDYTMIWVRQAPGKGLEWVSSISARGWGTYYADSVKGRFTISRDNSKNTLYLQMNSLRAEDTAVYYCAKGSPQLVLPFDYWGQGTLVTVSS
notes: VH dAb

- ND50 (human IL-1α [1]): > 20000 nM
B6: ABT1-11 (other)
VL: DIQMTQSPSSLSASVGDRVTITCRASQSIPYNLRWYQQKPGKAPKLLIYSASRLQSGVPSRFSGSGSGTDFTLTISSLQPEDFATYYCQQGYSWPMTFGQGTKVEIKR

- ND50 (human IL-1α [1]): 5000 nM
B7: ABT1-23 (other)
VH: EVQLLESGGGLVQPGGSLRLSCAASGFTFSSYPMEWVRQAPGKGLEWVSAIAWPGSMTYYADSVKGRFTISRDNSKNTLYLQMNSLRAEDTAVYYCAKTHRLFDYWGQGTLVTVSS

- IC50 (human IL-1α [2]): 10 nM
B8: ABT1-141-7 (other)
VL: DIQMTQSPSSLSASVGDRITITCRASQWIQKQLAWYQLKPGKAPKLLIYSSSYLQSGVPSRFSGSGSGTDFTLTISSLQPEDFATYYCQQHLRVPFTFGQGTKVEIKR
notes: VK dAb

- IC50 (human IL-1α [2]): 20 nM
B9: ABT1-141-16 (other)
VL: B8 VL with I19V, T20A, L38Q, Q90H
notes: VK dAb

- IC50 (human IL-1α [2]): 30 nM
B10: ABT1-141-22 (other)
VL: B8 VL with I19V, L38Q, H91Q, L92M, R93A, V94P, F96R
notes: VK dAb

- IC50 (human IL-1α [2]): 60 nM
B11: ABT1-141-21 (other)
VL: B8 VL with I19V, L38Q, H91Q, L92M, R93S, V94S, F96R
notes: VK dAb

- IC50 (human IL-1α [2]): 80 nM
B12: ABT1-141-23 (other)
VL: B8 VL with I19V, L38Q, H91Q, L92M, R93Q, V94P, F96R
notes: VK dAb

- IC50 (human IL-1α [2]): > 500 nM
B13: ABT1-143 (other)
VL: DIQMTQSPSSLSASVGDRVTITCRASQRIDRHLSWYQQKPGKAPKLLIYKTSKLQSGVPSRFSGSGSGTDFTLTISSLQPEDFATYYCQQLHAKPFTFGQGTKVEIKR
notes: VK dAb

- IC50 (human IL-1α [2]): > 500 nM
B14: ABT1-145 (other)
VL: DIQMTQSPSSLSASVGDRVTITCRASQDIDDGLAWYQQKPGKAPKLLIYRTSRLQSGVPSRFSGSGSGTDFTLTISSLQPEDFATYYCQPTWLPPCTFGQGTKVEIKR
notes: VK dAb

- ND50 (human IL-1α [1]): 7000 nM
B15: ABT1-22 (other)
VH: EVQLLESGGGLVQPGGSLRLSCAASGFTLKAYNMSWVRQAPGKGLEWVSLISSTGMFTDYADSVKGRFTISRDNSKNTLYLQMNSLRAEDTAVYYCAKWGVRRGLYFDYWGQGTLVTVSS

- IC50 (human IL-1α [2]): 300 nM
B16: ABT1-132 (other)
VL: DIQMTQSPSSLSASVGDRVTITCRASQNIATALLWYQQKPGKAPRLLIYDSSQLQSGVPSRFSGSGSGTDFTLTISSLQPEDFATYYCQQMYWVPFTFGQGTKVEIKR
notes: VK dAb

- IC50 (human IL-1α [2]): 10 nM
B17: ABT1-141-14 (other)
VL: B8 VL with I19V, L38Q, K45R, H91N, R93S
notes: VK dAb

- ND50 (human IL-1α [1]): 1000 nM
B18: ABT1-20 (other)
VH: EVQLLETGGGLVQPGGSLRLSCAASGFTFTPYRMGWVRQAPGKGLEWVSHIGIWGANTYYADSVKGRFTISRDNSKNTLYLQMNSLRAEDTAVYYCAKHPRPFDYWGQGTLVTVSS

- IC50 (human IL-1α [2]): 150 nM
B19: ABT1-150 (other)
VL: DIQMTQSPSSLSASVGDRVTITCRASQSISSYLNWYQQKPGKAPKLLIGGVSGLQSGVPSRFSGSGSGTDFTLTISSLQPEDFATYYCMQWWRWPSTFGQGTKVEIKRAAAEQKLISEED
notes: VK dAb

- IC50 (human IL-1α [2]): 200 nM
B20: ABT1-151 (other)
VL: B19 VL with V51R, M89G, W92Y, W94H, S96A
notes: VK dAb

- IC50 (human IL-1α [2]): 300 nM
B21: ABT1-152 (other)
VL: B19 VL with V51R, S76G, W92Y, W94A
notes: VK dAb

- IC50 (human IL-1α [2]): 200 nM
B22: ABT1-159 (other)
VL: DIQMTQSPSSLSASVGDRVTITCRASSPIGMDLFWYQQKPGKAPRLLIDGVSGLQSGVPSRFSGSGSGTDFTLTISSLQPEDFATYYCSQHWPAPLTFGQGTKVEIKR
notes: VK dAb

- IC50 (human IL-1α [2]): > 500 nM
B23: ABT1-146 (other)
VL: DIQMTQSPSSLSASVGDRVTITCRASQNIKTFLHWYQQKPGKAPKLLIYRVSHLQSGVPSRFSGSGSGTDFTLTISSLQPEDFATYYCQQEYRIPLTFGQGTKVEIKR
notes: VK dAb

- IC50 (human IL-1α [2]): > 1000 nM
B24: ABT1-172 (other)
VL: DIQMTQSPSSLSASVGDRVTITCRASQRIRNGLEWYQQKPGKAPKLLIWGSSRLQSGVPSRFSGSGSGTDFTLTISSLQPEDFATYYCAQTVWGPATFGQGTKVEIKR
notes: VK dAb

- ND50 (human IL-1α [1]): > 10000 nM
B25: ABT1-18 (other)
VL: DIQMTQSPSSLSASVGDRVTITCRASQSIQRWLAWYQQKPGKAPKLLIYFASQLQSGVPSRFSGSGSGTDFTLTISSLQPEDFATYYCQQLLRLPKTFGQGTKVEIKR

- IC50 (human IL-1α [2]): 3 nM
B26: ABT1-141-46 (other)
VL: B8 VL with I19V, L38Q, Y53H, F96M, E105V
notes: VK dAb

- IC50 (human IL-1α [2]): 200 nM
B27: ABT1-142 (other)
VL: B6 VL with P30N, Y31D, N32V, R34A, K45R, R53Y, G91Y, Y92I, W94L, M96F
notes: VK dAb

- IC50 (human IL-1α [2]): 10 nM
B28: ABT1-141-9 (other)
VL: B8 VL with M4V, I19V, L38Q, Y53W
notes: VK dAb

- IC50 (human IL-1α [2]): 30 nM
B29: ABT1-141-17 (other)
VL: B8 VL with I19V
notes: VK dAb

- IC50 (human IL-1α [2]): > 100 nM
B30: ABT1-141-1 (other)
VL: B8 VL with I19V, L38Q, S51G, Y53W, F98L
notes: VK dAb

- IC50 (human IL-1α [2]): 80 nM
B31: ABT1-141-3 (other)
VL: B8 VL with I19V, L38Q, A43T, S51Q, Y53H
notes: VK dAb

- IC50 (human IL-1α [2]): 10 nM
B32: ABT1-141-8 (other)
VL: B8 VL with I19V, Y53W
notes: VK dAb

- IC50 (human IL-1α [2]): 20 nM
B33: ABT1-141-6 (other)
VL: B8 VL with I19V, L38Q, Q89L
notes: VK dAb

- IC50 (human IL-1α [2]): 80 nM
B34: ABT1-141-18 (other)
VL: B8 VL with I19V, L38Q, A43V
notes: VK dAb

- IC50 (human IL-1α [2]): 50 nM
B35: ABT1-141-19 (other)
VL: B8 VL with I19V, L38Q, Y53W, P59R
notes: VK dAb

- ND50 (human IL-1α [1]): 0.133 nM
B36: ABT1-95-A2 (other)
VL: DIQMTQSPSSLSASVGDRVTITCRILQPPGRNLRWYQQKPGKAPKLLIYSKSFLEPGVPSRFSGSGSGTDFTLTISSLQPEDFATYHCQQGYRWPVTFGQGTKVEIKR

- ND50 (human IL-1α [1]): 20 nM
B37: ABT1-155 (other)
VL: B6 VL with Q27S, S28P, P30V, Y31A, S50A, R53S, Q89T, S93V, M96P

- ND50 (human IL-1α [1]): 0.2 nM
B38: ABT1-95-86 (other)
VL: B36 VL with I25A, L26S, P29I, G30V, K51T, F53Y

- ND50 (human IL-1α [1]): 0.014 nM
B39: ABT1-95-181 (other)
VL: B36 VL with I25A, L26S, Q27K, P29I, G30V, L33M, K51V, F53Y, Q89L, V96P

- ND50 (human IL-1α [1]): 100 nM
B40: ABT1-221 (other)
VL: DIQMTQSPSSLSASVGDRVTITCRASQDIWPYLMWYQQKPGKAPKLLIYYSSMLQSGVPSRFSGSGSGTDFTLTISSLQPEDFATYYCQQFRRWPYTFGQGTKVEIKR

- ND50 (human IL-1α [1]): 0.01 nM
B41: ABT1-95-174 (other)
VL: B36 VL with I25A, L26S, Q27R, P29I, G30V, K51V, F53Y, Q89R

- ND50 (human IL-1α [1]): 0.008 nM
B42: ABT1-95-177 (other)
VL: B36 VL with I25A, L26S, P29I, G30V, S50A, K51S, F53Y, Q89R

- ND50 (human IL-1α [1]): 0.005 nM
B43: ABT1-95-182 (other)
VL: B36 VL with I25A, L26S, Q27K, P29G, G30V, K51V, F53Y, Q89L, V96P

- IC50 (human IL-1α [2]): 100 nM
B44: ABT1-144 (other)
VL: DIQMTQSPSSLSASVGDRVTITCRASQRIKKYLAWYQQKPGKAPRLLIYRSSQLQSGVPSRFSGSGSGTDFTLTISSLQPEDFATYYCQQSFKRPVTFGQGTKVEIKR
notes: VK dAb

- IC50 (human IL-1α [2]): 300 nM
B45: ABT1-130 (other)
VL: DIQMTQSPSSLSASVGDRVTITCRASQEIGLWLSWYQQKSGKAPKLLIYRHSSSQSGVPSRFSGSGSGTDFTLTISSLQPEDFATYYCQQTYKAPFTFGQGTKVEIKR
notes: VK dAb
